Measurements taken from the domain aggregation screens of Martell et al. (2025).

Experiment: soluble fraction after stress (log2 fold change); higher = more stays soluble; pooled small domains, quantitative proteomics
Conditions: stress: 75 degC
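Note: 20 min heating vs room temperature control held 20 min.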

Sequence | soluble fraction (log2)
HMSGPFTELTPREREILSHLAEGQSNKVIARHLQISDGTVKLHVKAILRKLEVHSRVEAAVMAVEHGV | -2.18
HMQGEVPYSQFLTEVDRGDVQSVVIEGNNISGFYKNSSTAFTVVAPDDPKLVERLMEQGVEVKARPV | 0.112
HMEWGEADFVRLDEALATLRTLSPRQAEVVDLRFFSELSLEETAATLGLSLATVKRDWSVARLYLQRALS | 0.198
HMKTMTTIRKGSRGDTVATLQRKLNLIADGIFGPITDEAVRDFQKSHGLAVDGIVGPKTWAALGVGS | 0.00482
HMEVGVSGTVFNTDSLNVRKGPGTNFDTVTSLKRGSVVEVFEQSAVDGTVWGRIANGWVNMQYVSL | -0.707
HMGLSAEAARMAIQDAGLSKEDFAQKLGIKKVERVVEWEAGTSKPTFVQAQKIANATNIPFGYLFLVNPPK | 0.285
HMTNVIPKAMAPFNGSTIIADGIKNIKDHIDNLYITVGYKGATLSEHVINKGVSAVFNTTGKGNAWWVYN | 0.343
HMQGRIYLNPDLAEKLRAQYAAYPHWSYLLHTENLGALVRKTESLGPMPSYSTILRYMHANDMRKRNKP | -1.78
HMETLKEVPNLKGQQQEVAKQLLINAGLGVGKINIIEDSTIADGEVVTQSILPNTKVKKDTYVGFTVNKAP | 0.0288
HMTTTSGLIKTIQTGRRKLGMDDETYRALLADVSGGKTSSKDLNAYQLKEVLRRMREAGFRS | 0.58
HMTKQMELLAQGAAKLSVDLNQRQLDQLQTYYRELVDWNQRMNLTAITQYEEVQVKHFLDSL | -0.477
HMFELDELDLVILKNLANGLSKKQIRVKLKKMDLRPNSESAIDKRVSKLFDEFGAKNSTELVAKLIREGL | -2.71
HMEQWVSIEVEPGIRLDVALTEATQKSRSFIQNLIAEQRVLVNGQPKKANYKVRPGDHVELNYPEPT | -0.29
HMKSVQIPQSITVKEFSQAIEVSVADVIKKLMSMGVMVSQNKEINVDTAILVGEEFGVTVNVA | 0.609
HMGEGTAVGKALKFLAAQGKKFAPELLDMAGSLTGVEALSKLGDAIKGDPELSELDKRILLAELETDAV | -0.171
HMGAQPLIEPLSERELEVLALIAEGLTNAEIGRRLFIATGTVKRHVNTIYGKLDVHGRIEAIARARDLHLI | -1.25
HMGYQLSLEAQSQLKALGLTSEYITRILDEADNRQPIPGTSRTVYSLNGYQVEFSHSDQQVIRIARG | -1.14
HMDSVFGVVTSSDGVKLRKEASTISKVLTVLPYGTEVDVDRIGSEWIRIVTDGGQKGYVSADYLAVREGER | 0.682
HMWPTPRTWSALMNELNLYKENHGYANIVDIPSEKIRRMADGIIGEDMAVRYVAFLQSHASS | -1.7
HMKVEIVRVVKDIHIGDEITKDMVRTVEVGGYNLPDGVVKDTATVIGRFASADMVPGDYIISSKIADAP | -0.378
HMYITGAVIRKLREKNNITQLQLAERLRVSDKTISKWETGKGYPDITLLEPIAKTFSVSVTELISGDI | -2.46
HMIHSEEIQDHIFVKQLGEVFLRNHINYENIMKSWDDHTNVIKRFRRYPHRNKILNRESTIDEISFLKE | 0.176
HMGAVFEFIMEEEEPERIDKLLSSALPDLSRSYLQKLVKEGAVLVNKKEVKPNHKVNPGDVVEISVPEPE | 0.448
HMPHSTTDFSVSPDERQIVYSTNLQGRYDLWALDHNQGYPYPLTKKGQMSFFIKHLPGSQMILTGFD | -0.161
HMYAHLGKNLEVVINKALAQEDPEKKAGFAHHIAYYMKLAYSNWHKELVHDDAIRSELDTITGGELEFSN | 0.609
HMDRIISTPMPGRVVKIPVTEGEPVAKGATVITISAMKMESEYKSPIDGIVKKIHVSEGDNINANQPLIEI | -0.51
HMDRDQNVEEGQRSLKSEMGRFGLLIANMDDLAERVNYGNAEDMYAAIGAGDLRLMQVVHAAEEMLG | 0.097
HMKVYIKDISDLSDKLKSLLIENDIDDSNKLFEVEDQVLLEIKGLGSKTIDKIKDIVTEYLKKNN | -0.266
HMKRTKLEEATEWLRDRLSDGVKYNGEELLREGESADMARRTLRRAAQELGVIIERERGARGRWFWSLP | -0.897
HMNSRQPEEEALFELLAKNPYSDEQLEEIRIAIGSGISYKDVLVIADIKNTAKQMKKLRLKFTKDTG | -0.561
